Source: US20230094597A1, “COMPOSITIONS AND METHODS FOR TREATING DISORDERS CHARACTERIZED WITH EXCESSIVE OSTEOCLAST ACTIVITY” (THE JOHNS HOPKINS UNIVERSITY, priority 2021, published 2023)

Legend:
WT BMMs = experiment: In vitro osteoclast differentiation assay (TRAP staining) of BMMs; format: cell-based, mouse
Siglec15 = Siglec15 expression in BMMs (flow cytometry, immunostaining); format: cell-based, mouse
Procedure: To understand the detailed mechanism of Siglec15 regulating osteoclast formation, we incubated WT BMMs with biotinylated Siglec15 monoclonal antibody and manually separated Siglec15^+ BMMs from Siglec15- BMMs using anti-biotin microbeads and magnetic separators (FIG. 4A). Separated Siglec15* and Siglec15- BMMs were then stimulated with M-CSF and RANKL for osteoclastogenesis. […] One study reported that osteoclast fusion might be initiated by a small subset of progenitors (Levaot et al., 2015); therefore, we combined separated Siglec15^+ BMMs with BMMs isolated from Siglec15^ΔLysM mice in different proportions (1%, 5%, and 10%). […] Immunofluorescent staining confirmed that Siglec15^+ and Siglec15^− BMMs can form multinucleated osteoclasts with normal actin rings, and the expression of Siglec15 was restored in Siglec15^− BMMs during osteoclastogenesis (FIG. 8). […] BMMs cultured with RANKL alone, absent M-CSF, cannot survive during osteoclastogenesis (FIG. 4D, E).
(§1) To explore the molecular mechanism of M-CSF activation of Siglec15, we used U0126, a selective of mitogen-activated protein kinase kinases inhibitor of MEK1 and MEK2. […] To understand Siglec15 transcription, we analyzed the core enhancer of Siglec15 and found three binding sites of MYC with high species […]. Chromatin immunoprecipitation (ChIP) assay was performed to investigate the interaction of MYC with the 3 deoxyribonucleic acid binding sites. […] MYC recognizes and binds to E-box domains with consensus recognition sequence of CACGTG or CATGTG (Guccione et al., 2006). In the 310-bp binding region, we recognized the sequences of TATGTG and AATGTG that share 80% similarities with reported binding bases. To confirm the role of these MYC recognition sequences, we constructed an enhancer reporter with this Siglec15 enhancer, and 3 mutants were derived by site-directed mutagenesis to inactivate the MYC recognition (FIG. 11E). […] Thus, M-CSF activates Siglec15 expression via MEK-ERK-MYC cascade.
Mouse bone specimens were first fixed and then decalcified using 10% EDTA (Sigma-Aldrich, St. Louis, Mo., USA) for 14 days with constant shaking. For the histological assays, the detailed protocols were reported in a previous study (Dou, J. Bone Min. Res. 33, 899-908 (2018)). In short, the samples were then dehydrated and embedded in optimal cutting temperature compound (Sakura Finetek, Torrance, Calif., USA) or in paraffin. Four-μm-thick coronal-oriented femur sections were prepared for TRAP staining. Forty-μm-thick coronal-oriented femur sections were prepared for IF staining. The detailed protocols were described in a previous study study (Dou, J. Bone Min. Res. 33, 899-908 (2018)). Briefly, the sections were incubated with primary antibodies against mouse TLR2 (Santa Cruz Biotechnology, sc-21759, 1:200), Siglec15 (PA5-48221, Thermo Fisher Scientific, 1:100), ST3GAL1 (PA5-21721, Thermo Fisher Scientific, 1:50), and TRAP (Abcam, ab191406, 1:100) for 12 h at 4° C. For sialic acid detection, biotinylated Maackia Amurensis Lectin II (MAL II) (Vector Laboratories, CA, USA) was used to label the α2,3 linkage, and biotinylated Sambucus Nigra Lectin (SNA) (Vector Laboratories, CA, USA) was used to label the α2,6 linkage. Fluorescein-conjugated streptavidin (Vector Laboratories, CA, USA) was used for the addition of a fluorescent label to biotinylated sialic acid conjugates. A Zeiss LSM 780 confocal microscope and an Olympus BX51 microscope were used for image capture.
To sort Siglec15^+ cells, whole bone marrow was collected from mouse femurs and tibias after mice were euthanized with an overdose of inhaled isoflurane. Whole bone marrow cells were also used for culture and induction of BMMs using M-CSF (50 ng mL^−1) for higher Siglec15^+ cell enrichment in further studies. After red blood cell lysis, the cell number was counted, and the same numbers of cells were incubated with a biotinylated mouse Siglec15-specific antibody (PA5-48221, Thermo Fisher Scientific). […]

MEK-ERK-MYC signaling = experiment: Western blot of ERK, MYC phosphorylation and Siglec15 in BMMs; format: cell-based, mouse
Procedure: as §1
(§2) For the co-IP assays, cells were first lysed in the presence of protease inhibitors using IP buffer. […] SDS-PAGE was then used to separate the immunoprecipitates before transfer to a nitrocellulose membrane for immunoblotting procedures. […]

Siglec15 core enhancer = experiment: ChIP-PCR of MYC binding at the Siglec15 core enhancer; format: cell-based, mouse; settings: BMMs, stimulation for 48 h
Procedure: For the ChIP assay, primary BMMs were cultured with M-CSF or GM-CSF stimulation for 48 h to detect Siglec15 core enhancer DNA binding. M-CSF-primed cells were induced with RANKL for another 72 h to detect St3 gal1 core enhancer DNA binding. Afterward, the cells were cross-linked using 1% formaldehyde and lysed. DNA fragmentation was then achieved by enzymatic digestion with micrococcal nuclease (MNase). After digestion, 10% of the sample was preserved as the total input aliquot for further use. The remaining supernatant was then incubated with a ChIP-grade primary antibody against mouse p-CREB (Abcam, ab32096, 10 μg), c-FOS (Abcam, ab27793, 10 μg), or c-MYC (Abcam, ab9132, 10 μg). An anti-RNA Polymerase II antibody was used as the positive IP control, and normal rabbit IgG was used as the negative IP control. […] After elution, the DNA was then purified and recovered according to the manufacturer's instructions, and PCR detection was performed. The PCR primers used to detect MYC binding were as follows: Site #1, forward: [NT] ID NO: 1), and reverse: [NT] ID NO: 2); Site #2, forward: [NT] ID NO: 3), and reverse: [NT] ID NO: 4); and Site #3, forward: [NT] ID NO: 5), and reverse: [NT] ID NO: 6). The PCR primers used to detect FOS binding were as follows: forward: [NT] ID NO: 7), and reverse: [NT] ID NO: 8). The PCR primers used to detect CREB binding were as follows: forward: [NT] […]

St3gal1 = St3gal1 transcription under estrogen; settings: FIG. 26
TLR2 [1] = experiment: ELISA of peptidoglycan-induced cytokine secretion from BMMs; format: cell-based, mouse; settings: RANKL, or RANKL plus sialidase
Excerpt: To test signaling activity of α2,3 sialylation, we removed α2,3 SA of TLR2 induced by RANKL by adding sialidase in the BMM culture. […] To examine the transcriptional mechanism of ST3Gal1 activation by RANKL, we analyzed 5′ promoter sequence of ST3Gal1 and recognized binding sites for CREB1 and FOS (downstream transcription factors of RANKL signaling) in the core enhancer (FIG. 16E). […] To confirm the functional activity of the FOS site, we constructed an enhancer reporter with ST3Gal1 enhancer and FOS mutant binding sites. […] To validate RANKL-induced sialylation in vivo, we crossed RANKL^ﬂ/ﬂ mice with the Dmp1-Cre strain to generate osteocyte-specific RANKL knockout mice (RANKLΔ^Dmp1). […] Furthermore, the Siglec15-TLR2 co-localization that can be observed in RANKL^ﬂ/ﬂ mice disappeared in RANKL^ΔDmp1 mice (FIG. 19B).

Siglec15-DAP12 = experiment: Co-IP of Siglec15 with DAP12 and DAP12 tyrosine phosphorylation in BMMs; format: cell-based, mouse; settings: BMMs induced with RANKL, sialidase or both
Procedure: To examine whether Siglec15 downstream signaling is activated by binding to sialylated TLR2, co-IP of Siglec15 with DAP12, a key factor for cell fusion, was conducted in BMMs induced with RANKL, sialidase or both. […] Moreover, tyrosine phosphorylation of DAP12 was detected in the co-IP experiment upon RANKL induction of Siglec15 clustering but was again impaired by sialidase treatment (FIG. 28d). We then tested whether TLR2 signaling is activated by binding to Siglec15. The recruitment of MyD88 to TLR2 was examined by co-IP. […] Removal of SA by sialidase reduced MyD88 recruitment and NFATc1 activation (FIG. 28e). […] Cell-cell fusion is a fundamental cellular activity of macrophages, and multinucleation is a complex process that is likely involved in multiple signaling pathways. Activation of downstream signaling by both Siglec15 and sialylated TLR2 is involved in different cells simultaneously, and both signaling pathways could also occur in each cell, which could be the critical mechanism for cell fusion.
as §2

p65 = p65 nuclear translocation (immunostaining, western blot) in BMMs; format: cell-based, mouse
TLR2 [2] = experiment: Immunostaining of α2,3 and α2,6 sialic acid in WT BMMs; format: cell-based, mouse
Procedure: Because TLR2 has 4 N-linked glycosylation sites (Weber et al., 2004), to investigate the molecular mechanism of sialylation we tested α2,3 and α2,6 N-Linked SA modification, the two most common sialylation pattern in mammalian cells. […] To understand why α2,3 was sialylated, we examined each member expression profile of the entire sialyltransferase family. […] Moreover, α2,3 SA was immunocolocalized with TLR2, not with Siglec15 in WT and Siglec15^ΔLysM BMMs after RANKL stimulation for 24 h (FIGS. 16C, D).
Mouse bone specimens were first fixed and then decalcified using 10% EDTA (Sigma-Aldrich, St. Louis, Mo., USA) for 14 days with constant shaking. For the histological assays, the detailed protocols were reported in a previous study (Dou, J. Bone Min. Res. 33, 899-908 (2018)). In short, the samples were then dehydrated and embedded in optimal cutting temperature compound (Sakura Finetek, Torrance, Calif., USA) or in paraffin. Four-μm-thick coronal-oriented femur sections were prepared for TRAP staining. Forty-μm-thick coronal-oriented femur sections were prepared for IF staining. The detailed protocols were described in a previous study study (Dou, J. Bone Min. Res. 33, 899-908 (2018)). […]

## N#CC(=C(/N)Sc1ccccc1N)/C(C#N)=C(\N)Sc1ccccc1N [U0126, reference compound]
WT BMMs; WT BMMs, U0126 10 μmol·L^-1
  cell survival rate: decreases
  osteoclastogenesis: decreases
Siglec15; BMMs, M-CSF+U0126, immunostaining
  Siglec15 upregulated by M-CSF: abrogated
MEK-ERK-MYC signaling; M-CSF+U0126, 0-72 h
  M-CSF-ERK-MYC-Siglec15 cascade: blocked this cascade

## GM-CSF: granulocyte-macrophage CSF, encoded by CSF2
WT BMMs; BMMs induced with RANKL+GM-CSF
  osteoclastogenesis: cannot induce
Siglec15; BMMs treated with GM-CSF, immunostaining
  expression of Siglec15: cannot induce
Siglec15 core enhancer
  binding of MYC with the core enhancer of Siglec15: cannot induce

## estrogen
St3gal1
  RANKL-activated St3gal1 transcription: inhibits

B1: M-CSF: macrophage colony stimulating factor (protein, UniProt P09603 33-554, looked up)
Macrophage colony-stimulating …: EEVSEYCSHMIGSGHLQSLQRLIDSQMETSCQITFEFVDQEQLKDPVCYLKKAFLLVQDIMEDTMRFRDNTPNAIAIVQLQELSLRLKSCFTKDYEEHDKACVRTFYETPLQLLEKVKNVFNETKNLLDKDWNIFSKNCNNSFAECSSQDVVTKPDCNCLYPKAIPSSDPASVSPHQPLAPSMAPVAGLTWEDSEGTEGSSLLPGEQPLHTVDPGSAKQRPPRSTCQSFEPPETPVVKDSTIGGSPQPRPSVGAFNPGMEDILDSAMGTNWVPEEASGEASEIPVPQGTELSPSRPGGGSMQTEPARPSNFLSASSPLPASAKGQQPADVTGTALPRVGPVRPTGQDWNHTPQKTDHPSALLRDPPEPGSPRISSLRPQGLSNPSTLSAQPQLSRSHSSGSVLPLGELEGRRSTRDRRSPAEPEGGPASEGAARPLPRFNSVPLTDTGHERQSEGSFSPQLQESVFHLLVPSVILVLLAVGGLLFYRWRRRSHQEPQRADSPLEQPEGSPLTQDDRQVELPV
Siglec15; FCM, after 3 days of stimulation
  Siglec15 expression in separated Siglec15- BMMs: restored Siglec15 expression
Siglec15; flow cytometry, Siglec15 ΔLysM mice, M-CSF 3 days
  proportion of Siglec15+ BMMs: no obvious changes
Siglec15; flow cytometry, whole bone-marrow cells of Siglec15 fl/fl mice, M-CSF 3 days
  proportion of Siglec15+ BMMs: significantly increased
Siglec15; immunofluorescent staining, Siglec15 fl/fl mice
  proportion of Siglec15+ BMMs: significantly increased
MEK-ERK-MYC signaling; western blot
  MYC phosphorylation via ERK activation: phosphorylated the Ser62 of MYC

B2: RANKL: receptor activator of NF-κappaB ligand (protein, UniProt O14788 140-317, looked up)
Tumor necrosis factor ligand …: IRAEKAMVDGSWLDLAKRSKLEAQPFAHLTINATDIPSGSHKVSLSSWYHDRGWAKISNMTFSNGKLIVNQDGFYYLYANICFRHHETSGDLATEYLQLMVYVTKTSIKIPSSHTLMKGGSTKYWSGNSEFHFYSINVGGFFKLRSGEEISIEVSNPSLLDPDQDATYFGAFKVRDID
TLR2 [1]
  peptidoglycan-induced secretion of IL-6: inhibited
  peptidoglycan-induced secretion of TNF-α: inhibited
Siglec15-DAP12
  association of Siglec15 with DAP12: induced the association of Siglec15 with DAP12
p65
  p65 nuclear translocation: activated
TLR2 [2]
  α2,3 sialylation of TLR2: robustly induced
